# Patent publication US20060110789
# Experiments:
# [1] = biological target: diketide-ACP4(Ø) (DEBS ACP4 without linker, loaded with diketide) (UniProt Q03132)
# [2] = biological target: diketide-ACP4(4) (DEBS ACP4 with its natural C-terminal linker, loaded with diketide) (UniProt Q03132)
# [3] = biological target: diketide-ACP2(4) (DEBS ACP2 with the C-terminal linker of module 4, loaded with diketide) (UniProt Q03131)
# [4] = biological target: diketide-ACP2(2) (DEBS ACP2 with its natural C-terminal linker, loaded with diketide) (UniProt Q03131)
# DEBS-2 = DEBS-2 (UniProt Q03132)
substance,measurement,setting,value
"(3)M5+TE (module 5 of DEBS with the N-terminal linker of module 3, fused to thioesterase)",kcat/KM (FIG. 29 B),[1],41.7 M⁻¹ s⁻¹
same,"kcat/KM, fold decrease against the matched reaction (FIG. 28 B)",[2],"fell approximately 20-fold and 150-fold, respectively"
same,triketide lactone formation at 20 µM substrate (FIG. 28 B),[2],transfer of diketide from the donor ACP to the acceptor module occurred at 20 µM substrate concentration
"(5)M5+TE (module 5 of DEBS with its own N-terminal linker, fused to thioesterase)",kcat/KM (FIG. 29 A),[1],68.3 M⁻¹ s⁻¹
same,"kcat/KM, fold decrease against the matched reaction (FIG. 28 C)",[3],"fell approximately 20-fold and 150-fold, respectively"
same,triketide lactone formation at 20 µM substrate (FIG. 28 C),[3],transfer of diketide from the donor ACP to the acceptor module occurred at 20 µM substrate concentration
same,"conversion of acyl-ACP into triketide lactone in 1 h (20 µM 4, 1 µM (5)M5+TE)",[2],70% of the acyl-ACP was converted into triketide lactone in 1 h
same,"elongation rate constant (kcat) with 4b, fold increase against the NAC thioester 2b",[2],the elongation rate constant (kcat) increases at least 25-fold
same,k60 µM (printed there as kcat/KM),[2],kcat/KM values of 1.4 min-1 and 9.3 min^-1
same,kcat/KM,[2],kcat/KM values of 390 min^-1 mM^-1 and 290 min^-1mM^-1
same,triketide lactone formation at 20 µM substrate (FIG. 28 A),[2],transfer of diketide from the donor ACP to the acceptor module occurred at 20 µM substrate concentration
same,triketide lactone formation at 20 µM substrate (FIG. 28 D),[4],no product was detected at the same substrate concentrations
"(5)M6+TE (module 6 of DEBS with the N-terminal linker of module 5, with thioesterase)","kcat/KM, fold decrease against diketide-ACP4(4) with the same module",[1],the kcat/KM values drop approximately 70-300 fold
ery M1-RAL rifM5+ERL,6-dEB production on co-transformation in S. coelicolor (with DEBS-3),DEBS-2,Yes (dEB6)
